We go through six proteins from paper PMC8211825, “Molecular mechanism of calcium induced trimerization of C1q-like domain of otolin-1 from human and zebrafish” (Scientific Reports, 2021).

To fix the notation:
B1: dOtolC1q D432A (domain or fragment, zebrafish (Danio rerio), UniProt A5PN28 351-488, looked up)
chain: AVQKRSAFSVGLFPSRSFPPPGLPIRFDKIIYNEEAHWDPNASKFNCTHGGVYVFSYYITVRNRPLRAALVVNGIRKLRTRASLYGQDIDQASNMAVLRLSSGDQVWLETLRDWNGVYSSSEDDSTFSGFLLYADATK
notes: gC1q (C1q-like) domain of zebrafish otolin-1, UniProt A5PN28, with D432A; Same construct as m6 with the mutation
B2: dOtolC1q D440A (domain or fragment, zebrafish (Danio rerio), UniProt A5PN28 351-488, looked up)
chain: AVQKRSAFSVGLFPSRSFPPPGLPIRFDKIIYNEEAHWDPNASKFNCTHGGVYVFSYYITVRNRPLRAALVVNGIRKLRTRDSLYGQDIAQASNMAVLRLSSGDQVWLETLRDWNGVYSSSEDDSTFSGFLLYADATK
notes: gC1q (C1q-like) domain of zebrafish otolin-1, UniProt A5PN28, with D440A; Same construct as m6 with the mutation
B3: dOtolC1q D432A D440A (domain or fragment, zebrafish (Danio rerio), UniProt A5PN28 351-488, looked up)
chain: AVQKRSAFSVGLFPSRSFPPPGLPIRFDKIIYNEEAHWDPNASKFNCTHGGVYVFSYYITVRNRPLRAALVVNGIRKLRTRASLYGQDIAQASNMAVLRLSSGDQVWLETLRDWNGVYSSSEDDSTFSGFLLYADATK
notes: gC1q (C1q-like) domain of zebrafish otolin-1, UniProt A5PN28, with D432A and D440A; Same construct as m6 with the two mutations; also called double mutant
B4: hOtolC1q E417A (domain or fragment, human, UniProt A6NHN0 338-473, looked up)
chain: ARVPRSAFSAGLSKPFPPPNIPIKFEKILYNDQGNYSPVTGKFNCSIPGTYVFSYHITVRGRPARISLVAQNKKQFKSRATLYGQEIDQASLLVILKLSAGDQVWLEVSKDWNGVYVSAEDDSIFTGFLLYPEETS
notes: gC1q (C1q-like) domain of human otolin-1, UniProt A6NHN0, with E417A
B5: hOtolC1q D425A (domain or fragment, human, UniProt A6NHN0 338-473, looked up)
chain: ARVPRSAFSAGLSKPFPPPNIPIKFEKILYNDQGNYSPVTGKFNCSIPGTYVFSYHITVRGRPARISLVAQNKKQFKSRETLYGQEIAQASLLVILKLSAGDQVWLEVSKDWNGVYVSAEDDSIFTGFLLYPEETS
notes: gC1q (C1q-like) domain of human otolin-1, UniProt A6NHN0, with D425A
B6: hOtolC1q E417A D425A (domain or fragment, human, UniProt A6NHN0 338-473, looked up)
chain: ARVPRSAFSAGLSKPFPPPNIPIKFEKILYNDQGNYSPVTGKFNCSIPGTYVFSYHITVRGRPARISLVAQNKKQFKSRATLYGQEIAQASLLVILKLSAGDQVWLEVSKDWNGVYVSAEDDSIFTGFLLYPEETS
notes: gC1q (C1q-like) domain of human otolin-1, UniProt A6NHN0, with E417A and D425A; also called double mutant

This data set deals with the molecule itself. Kind of data set: AUC; sedimentation velocity, c(s) analysis in SEDFIT; sevenfold (hOtolC1q forms) or 14-fold (dOtolC1q forms) molar excess of TbCl3; protein 0.20-0.25 mg/mL; self-association of the gC1q domain into trimers.
The term stoichiometry N denotes a count of units in the complex or per binding partner. For B1, the “stoichiometry N” value is 3.
B2: the “stoichiometry N” value turned out to be 3.
For the protein B3, the “stoichiometry N” value was determined as 3.
Under B4 stands 3; under B5, 3.
Regarding B6, the “stoichiometry N” value is 3.
